{"source": "the DeepSol protein solubility set", "data": [{"assay": "soluble on expression in E. coli; label from the status in PepcDB or PDB records", "values": [{"sequence": "MGSDKIHHHHHHMCMTSPDQLTASESADTASAHKRVLVAAPRGYCAGVDRAVETVEKALEKYGAPVYVRKEIVHNRYVVDTLAERGAIFVDETTEAPEGAHLVFSAHGVSPAVHKEAEALSLKTLDATCPLVTKVHNEVKRFARDGYHILLVGHEGHEEVEGTAGEAPDVTHLVDGVESVDKLPEFLHDEKLIWLSQTTLSVDETMTIVKKLHERFAHLQDPPSDDICYATQNRQVAVKAIAAESDVVIVVGSQNSSNSKRLVEVALQAGAGASYLVDYAHQIDESWLDGATTVGVSSGASVPEILVRGVLEFLDARGFHDVKEITTAAEKITFALPRDLRPART", "soluble on expression in E. coli": "not soluble"}, {"sequence": "MTSITPVTLANCEDEPIHVPGAIQPHGALVTLRADGMVLAASENIQALLGFVASPGSYLTQEQVGPEVLRMLEEGLTGNGPWSNSVETRIGEHLFDVIGHSYKEVFYLEFEIRTADTLSITSFTLNAQRIIAQVQLHNDTASLLSNVTDELRRMTGYDRVMAYRFRHDDSGEVVAESRREDLESYLGQRYPASDIPAQARRLYIQNPIRLIADVAYTPMRVFPALNPETNESFDLSYSVLRSVSPIHCEYLTNMGVRASMSISIVVGGKLWGLFSCHHMSPKLIPYPVRMSFQIFSQVCSAIVERLEQGRIAELLRVSTERRLALARRARDADDLFGALAHPDDGIAALIPCDGALVMLGGRTLSIRGDFERQAGNVLQRLQRDPERDIYHTDNWPQPSEDSPDGGDCCGVLAIRFHRQESGWIFWFRHEEVHRIRWGGKPEKLLTIGPSGPRLTPRGSFEAWEEVVRGHSTPWSETDLAIAEKLRLDLMELCLNHALEHHHHHH", "soluble on expression in E. coli": "soluble"}, {"sequence": "MGGLQQRCLWEVVTPRLSGAASLNGEQRADVCVIGAGFTGLSAALHLLEAGRSVCVLEAYEVGHGGSGRNVGLINAGTWIPPDEVVATLGAEQGEKLNAVLGRAPALVMETIERLGIDCQLRREGTLHMSHNASGVADLQRRHAQWTRRGAPLELLTGAACHEACGTRRISAALLDRRAGTLNPMAYSRGLATAVVQRGGQLYQRSPVLALERQGALWAVRSSAGAVLAEQVVIASNAYTEGEWTNLRRHFFPGYYYQVASAPLHGAAAERILPHGQGSWDTRTVLSSIRRDAQGRLLLGSLGNGANKPAWFLRQWADRIQSHYFPDLGQVNWEYSWTGCIAFTPDHLMRLFEPAEGLLAVTGYNGRGVTTGTVVGKAFADYLLSGERATLPLPFSDMKPVPAARLRSCAYEMGFSLYHAGQCLRVVLLEHHHHHH", "soluble on expression in E. coli": "soluble"}, {"sequence": "MKPFCTVMANGEDITRTLMDYVLSIEITDEAEDKSDRITIELDDRARECDNGFLDIPLIGTIISVTLGYEGGKNRDMGAYLIDEISVSSPPQSLSVTGRAASMNTSYRTPKSQSYHQQTLGNIIQEIAERNGYTPKVDPALAKIVVRHIDQTSESDMAFATRLAEDYDAVAKPVDGKLVLAKRGEGKAITGETLPVVVIHEKLCSSWDFKYSARDEAGAANGLATEAGDDQKAAADAREPEEVEEGEDVIHMDESDAPNLPKAETEAKTPENQEQDEEKKGGVLASYHDIRTGEKKEVKVGKAPFHELKYTYHNQSEAVAAIAAYRNKSSRGKSSFSCDIGGDPFVQAEAKLVQEPPFRPYIPAEWRIKSVKHKLDKTGGYTTKIDCELFDETQEDAAGNVANTTPDKDDTLDPNAPPNACDEGEGVIHMDEEDR", "soluble on expression in E. coli": "not soluble"}, {"sequence": "AIAETGGGAPLTKSSEAVEGDFVEDRLRGNEAFRRGNYEAAASYYSEALEKIRLAKTELPTQDRYPWSLEEVLIRCNRALVFLRLASAAALPNVGSNRFEEDACTAEHESEEATPCSLWQRAAEDASVALDLITDFEDEGESERVTELRVKALYRRMVANKGQNNFADAAKDAEALAKIRPEYRSEAELLAQRAAAESERAKQEALQKLKEVGNSFLSLFGVSIDNFQTKRNPDGTYSVSYCPKS", "soluble on expression in E. coli": "soluble"}, {"sequence": "MWPAIIQQLSEQLGKDFHLVEKEKVHGGDINECFMVSDGIDRYFVKTNQREYLTKFTAEVENLRVMRESNTVQVPEYILHGTSKTHAYLVLNYLATKPLDDAERSYEFGVQLANLHRWGEQKEFGFDIDNYIGATVQPNPWHKKWALFFAEQRIGWQLQLMQEKGVNLTNINEFVEMVKTRLANHSPRPSLLHGDLWFGNVANIVNGPLCFDPACYWGDRECDIALAEWFGGFQPEFFQGYESVWPLDWGYEERKDIYNLYHVLNHYNQFGGHYLDEAQKLIEKILSYLEHHHHHH", "soluble on expression in E. coli": "not soluble"}, {"sequence": "MKLSFSLPPKSKSRVSLNSDRKDCIGAGNLKQFVTEFDPSETLTDSKPKYVIPPIEDRRRSYRSIDLPLPSASGLQFEAEIPSGDGSDNNITYGLNLRQKVENVEKPEPVEKMLLKSMRTDLESLPDAPEKEDFESFPVDGFGEALLAGYGWKPGQGIGLKAKEDVKIVEYEKWSGNEGFGFGKSDKAMKMIDNKLVGSGSHEEVKVGINKIENMEKDRVVRKRNRETEGESRTEVKACKQNYRGQTRETREKTSWLRSHIKVRIISKDVKGGRLYLKKAVVTDVVGPTSCDIAMDETQELVQGIDQELLETALPRRGGSVLVLSGRHKGVYGRLVEKDLDKETGVVCDADSQEMLHVKLDQVAEYIGDPADIGY", "soluble on expression in E. coli": "soluble"}, {"sequence": "MSRIMIQGTASSVGKSILVAALCRIFKQDGFSVCPYKSQNMSLNSYITLDGKEMGRAQVLQAYAAGLEPEVYMNPILLKPTTDKSCQVIVKGEVYGVSSAKNYYNMKKEFAPMLKEDFEELEDKFDIVVIEGAGSPAEINLRENDIVNMGLAELVDAPVVLVGDIDKGGVFASLFGTVMLLEENERKRIKGTIINKFRGDVEILKPGLSMLEERINIPCFGVVPYFN", "soluble on expression in E. coli": "not soluble"}, {"sequence": "MSTVVDQEGNNKQQTVAVIGAGIIGINCALELQSLGYQVTLLDKEGIGLGCSKANAGHFATEQVFPLAEFSLLWQMPKLLFDPLGPVALSAKHFIKAIPWFMQFFNNMRPTLRNKNKKALQALNKNAIHHYTALLKAAEAEHLISLDGSLLVFETNDRTKVELMYQHYLAAGIAVKLLDKRQTLELEPNLSNNINYSLYFTDVAHTIDPLALSKTLAEFAMCKGMTFQQTAVTSVTQTQSGVTVEIDEQHLHVDHCVIACGAWSKKLLNGLNYHLPIEAERGYSLSLPISAAASALLSRPVASAERRFIITPMGKTLRLAGTVEYAGLNAPANYKRAEMLKGNAAYILKRLPENEEKQEAWMGCRPSLPDSLPVICQAPNHDKIFFALGHQHLGLTQGAITGKLIGQLVTGHSPEINIDPFCIRRFNLEHHHHHH", "soluble on expression in E. coli": "not soluble"}, {"sequence": "MSLKTIITNLKVYILKGPKEKRPHWVSNFIVPNANELLVILETNQGVEGFGLATSYTDMSPIVHVIESGISEKILGCNPLEPEMLYQSLFNLTASRLAYEKGWSREALIRVSAAVDIACWDIIGKISGLPLYQLFGGFRNKVPCYVTCAYYREGKDHAELKDEIQMLVDQGHQGFKAKVGGLSLAEDLERMELVREIIGPERDLMIDVNRAWDLKTAIEGARLLEPLKPTWLEEPVRWMDDRRELKILAQHTSIPLSGGESESTSYGCRTMIDEKAIQILQFDCTMFGGFTEGRKMTALCDLNHVDVAPHHDCFIHAPLVASSPAGRIVESFTDPERDPLQAELFENPPNIEKGWLTLNEAQGLGLTLSENALAKFGTQIIEGHHHHHH", "soluble on expression in E. coli": "soluble"}, {"sequence": "MGSDKIHHHHHHDAVRTYYAKAISANEKTNSVCMFVKEAEKWAMDWDEKAKDPQFQKPPLFGLPMSLKECVPLEGYDQTRGFVQDTFRPTETDGVLVQQLKKLGAIPYVQTNVPQSLLSYNCSNPVYGTTNHPMDKTRTSGGSSGGESALISADGSLLGIGGDVGGSIRIPCAYTGTTGIKPSHLRFSHRGVCGSVPGRPLINSNDGPMSTRVETNVDFLRTVWADTWITEQDPYVPPVTWNEEAYKSDKKLKIGYYVDDGWFTPTPVCQRAVMEAKQILEDSGHTLVPFRPPRVPEVLRMFLRAVCVDAGTFLSKKLMNDIIDPLLYTQVVLWMVPVPIQRFLSSIIKVFFPRLGNLMDAMTLSTVELRNTYADIEAYRSEMAGLMVDQKIDALLCPVTVSPALPHVSPSKLFAGTSYTGIFNLLDYAAGSVNVTHVTKQDELDLEDYEESDPWYALAKKGSRGTIGFPIGVQVATPPYKEETCLRIMREIERGVTGK", "soluble on expression in E. coli": "not soluble"}, {"sequence": "MSLTIAHDIDLSAVLAERLTTTHPDVLRELLAAFIHALMGAEADAVCGAGYGQRSSERTNSRNGYRHREFDTRAGTLDLAIPKLRQGSYFPDWLLERRKRAERALTTVVATCYLLGVSTRRMDKLVETLGITSLSKSQVSVMAKELDAAVEAFRTRPLDAGPYTFMAADALVLKVREAGRVVNVHALIATGVNAEGYREILGIDVTTTEDGAGWLTFLRSLTARGLSGVRLVTSDAHAGLVAAIGATLPGASWQRCRTHYATNLMAITPKSSWPWVRTLLHSVFDQPDAGSVAAQYDRIIDALADKLPKVADHLEDTRADLLAFTAFPKQIWRQIWSNNPQVICSPRDGVFDVRHEVLRSQVLRAGHAYLQLSRRQEPAEGRCRLHELSRRSRCVSRGEGHHHHHH", "soluble on expression in E. coli": "not soluble"}, {"sequence": "GPGSMGCGDSKVRQGGPSRPPPPRGGPNSASTKVEGRANGPNEETSRVESKGSAPPEPEVNSTPVPTKPLGNGVDNSGAEKTNAPPTGSAPPAQNCSQQIELDDEGNALVLPKGEWVRTEGTPFYYSDAENLYFHPPSCQFYDPTNEMWYDPEQDEWYRDDDPAE", "soluble on expression in E. coli": "not soluble"}, {"sequence": "MKGLENAIRNLNSLDRQMVPRASIWAVNRVAQKAVSVATRKVARETVAGDNQVRGLPLKLVRQRVRLFKAGTDGKRSARIRINRGNLPAIKLGAAQVRMSKRRGKLLYRGSVLKIGPYLFRDAFIQQLANGRWHVMRRVNGKNRYPIDVVKIPLSGPLTQAFESATQSLIDEEIPKQLGYALKQQLRLYLSR", "soluble on expression in E. coli": "not soluble"}, {"sequence": "MGSDKIHHHHHHMKSYFVTMGFNETFLLRLLNETSAQKEDSLVIVVPSPIVSGTRAAIESLRAQISRLNYPPPRIYEIEITDFNLALSKILDIILTLPEPIISDLTMGMRMINTLILLGIIVSRKRFTVYVRDEGGGSRVISFNDNTIRALMRDYSREEMKLLNVLYETKGTGITELAKMLDKSEKTLINKIAELKKFGILTQKGKDRKVELNELGLNVIKLNKSVIESSKSSEELVKENKGKEVNIPY", "soluble on expression in E. coli": "not soluble"}, {"sequence": "MIFDGHSDTWADVTIRRLNGEKDVFRRIHLDNFKRANIEGAIFVIWIDPPYDKEPEKRVKQIISSIKDEIEDMKDVVNIVKKYSDIDKGISENKINILIGLEGLSHIGRNIDLLDYFYKEVGARHASLTWNEQNELATGCLGDENRGLTEIGKKAVNKMEKLGMIVDVSHLNEKSFWDLMSVASKPVIASHSNARSLCDAKRNLTDNQLKEISNTGGLVGINSFRGFTNSNPKKQDLIHLVDHIDYMVNLIGIEHVSFGFDFSDYLGKETIGSFTGNASVPSVDGLESTHTAQNIVVELENRGYKKKDIELISSGNFYRLFKDILK", "soluble on expression in E. coli": "not soluble"}, {"sequence": "MRDRVRWRVLSLPPLAQWREVMAALEVGPEAALAYWHRGFRRKEDLDPPLALLPLKGLREAAALLEEALRQGKRIRVHGDYDADGLTGTAILVRGLAALGADVHPFIPHRLEEGYGVLMERVPEHLEASDLFLTVDCGITNHAELRELLENGVEVIVTDHHTPGKTPPPGLVVHPALTPDLKEKPTGAGVAFLLLWALHERLGLPPPLEYADLAAVGTIADVAPLWGWNRALVKEGLARIPASSWVGLRLLAEAVGYTGKAVEVAFRIAPRINAASRLGEAEKALRLLLTDDAAEAQALVGELHRLNARRQTLEEAMLRKLLPQADPEAKAIVLLDPEGHPGVMGIVASRILEATLRPVFLVAQGKGTVRSLAPISAVEALRSAEDLLLRYGGHKEAAGFAMDEALFPAFKARVEAYAARFPDPVREVALLDLLPEPGLLPQVFRELALLEPYGEGNPEPLFLLFGAPEEARRLGEGRHLAFRLKGVRVLAWKQGDLALPPEVEVAGLLSENAWNGHLAYEVQAVDLRKPEALEGGIAPFAYPLPLLEALARARLGEGVYVPEDNPEGLDYAWKAGFRLLPPEEAGLWLGLPPRPVLGRRVEVALGREARARLSAPPVLHTPEARLKALVHRRLLFAYERRHPGLFSEALLAYWEVNRVQEPAGSP", "soluble on expression in E. coli": "soluble"}]}]}
